From the supplement of paper PMC5998384

Key:
HeLa Kyoto [1] = assay: solubility in G1/S (NP-40 vs SDS abundance) (log2 ratio); higher = more soluble; conditions: cell cycle stage: G1/S
HeLa Kyoto [2] = assay: thermal stability score vs G1/S (z-score of summed log2 fold changes over temperatures); higher = more thermally stable than in G1/S
HeLa Kyoto [3] = assay: solubility change mitosis vs G1/S (difference of NP-40 vs SDS log2 ratios) (log2 ratio difference); higher = more soluble in mitosis
HeLa Kyoto [4] = assay: melting temperature (median over replicates), in situ; higher = more thermally stable
[5] = cell cycle stage: early G1 (4.5 h after nocodazole release)
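Throughout, for melting temperature (median over replicates), in situ: HeLa Kyoto cells synchronized by double thymidine or nocodazole block, proteins quantified by TMT10plex mass spectrometry, three independent biological replicates.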
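Throughout, for solubility change mitosis vs G1/S (difference of NP-40 vs SDS log2 ratios): synchronized HeLa Kyoto cells (double thymidine block for G1/S, nocodazole release for mitosis), protein amounts in NP-40 versus SDS lysates quantified by mass spectrometry, three biological replicates.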
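Throughout, for solubility in G1/S (NP-40 vs SDS abundance): HeLa Kyoto cells arrested at G1/S by double thymidine block, proteins quantified by TMT10plex mass spectrometry in mild NP-40 versus SDS extracts, three biological replicates.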
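Throughout, for thermal stability score vs G1/S (z-score of summed log2 fold changes over temperatures): synchronized HeLa Kyoto cells, proteins quantified by TMT10plex mass spectrometry, three biological replicates, mitosis taken 0.5 h after nocodazole release, G1/S directly after double thymidine block.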

Chain of UBE2D3 (chain, as listed by the source): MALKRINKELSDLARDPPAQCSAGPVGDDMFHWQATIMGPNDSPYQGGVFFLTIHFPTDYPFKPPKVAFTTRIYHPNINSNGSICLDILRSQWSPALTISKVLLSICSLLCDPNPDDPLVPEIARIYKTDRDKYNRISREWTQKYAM
Chain of PYM1 (chain, as listed by the source): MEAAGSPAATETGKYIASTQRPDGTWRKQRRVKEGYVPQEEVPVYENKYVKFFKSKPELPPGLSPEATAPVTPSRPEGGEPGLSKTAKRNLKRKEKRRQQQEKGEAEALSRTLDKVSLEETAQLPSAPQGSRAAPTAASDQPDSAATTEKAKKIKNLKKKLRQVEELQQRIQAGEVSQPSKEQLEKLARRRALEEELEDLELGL
Chain of CDK17 (chain, as listed by the source): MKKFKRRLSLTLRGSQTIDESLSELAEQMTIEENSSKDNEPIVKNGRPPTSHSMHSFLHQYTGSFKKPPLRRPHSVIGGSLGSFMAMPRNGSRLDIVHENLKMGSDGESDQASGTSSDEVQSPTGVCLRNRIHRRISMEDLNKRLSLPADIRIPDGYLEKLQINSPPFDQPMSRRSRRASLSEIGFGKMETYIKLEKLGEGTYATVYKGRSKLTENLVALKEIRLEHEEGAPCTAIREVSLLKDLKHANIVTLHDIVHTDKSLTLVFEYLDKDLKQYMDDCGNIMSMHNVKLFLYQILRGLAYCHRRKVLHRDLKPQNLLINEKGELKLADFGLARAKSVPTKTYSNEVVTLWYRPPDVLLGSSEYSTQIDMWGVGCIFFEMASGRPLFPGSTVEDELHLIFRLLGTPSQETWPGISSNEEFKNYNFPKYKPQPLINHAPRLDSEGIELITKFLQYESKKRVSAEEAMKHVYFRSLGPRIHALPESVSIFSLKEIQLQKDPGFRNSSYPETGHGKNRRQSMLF
Chain of PLSCR3 (chain, as listed by the source): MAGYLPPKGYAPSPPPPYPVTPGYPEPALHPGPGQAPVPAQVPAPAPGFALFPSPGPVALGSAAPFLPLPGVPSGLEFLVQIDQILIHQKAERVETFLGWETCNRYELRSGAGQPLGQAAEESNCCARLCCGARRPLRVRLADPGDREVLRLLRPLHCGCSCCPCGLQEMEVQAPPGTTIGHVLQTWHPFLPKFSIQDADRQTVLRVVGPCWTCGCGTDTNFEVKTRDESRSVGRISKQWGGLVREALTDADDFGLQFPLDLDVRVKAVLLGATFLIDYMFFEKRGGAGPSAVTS
Chain of WWC2 (chain, as listed by the source): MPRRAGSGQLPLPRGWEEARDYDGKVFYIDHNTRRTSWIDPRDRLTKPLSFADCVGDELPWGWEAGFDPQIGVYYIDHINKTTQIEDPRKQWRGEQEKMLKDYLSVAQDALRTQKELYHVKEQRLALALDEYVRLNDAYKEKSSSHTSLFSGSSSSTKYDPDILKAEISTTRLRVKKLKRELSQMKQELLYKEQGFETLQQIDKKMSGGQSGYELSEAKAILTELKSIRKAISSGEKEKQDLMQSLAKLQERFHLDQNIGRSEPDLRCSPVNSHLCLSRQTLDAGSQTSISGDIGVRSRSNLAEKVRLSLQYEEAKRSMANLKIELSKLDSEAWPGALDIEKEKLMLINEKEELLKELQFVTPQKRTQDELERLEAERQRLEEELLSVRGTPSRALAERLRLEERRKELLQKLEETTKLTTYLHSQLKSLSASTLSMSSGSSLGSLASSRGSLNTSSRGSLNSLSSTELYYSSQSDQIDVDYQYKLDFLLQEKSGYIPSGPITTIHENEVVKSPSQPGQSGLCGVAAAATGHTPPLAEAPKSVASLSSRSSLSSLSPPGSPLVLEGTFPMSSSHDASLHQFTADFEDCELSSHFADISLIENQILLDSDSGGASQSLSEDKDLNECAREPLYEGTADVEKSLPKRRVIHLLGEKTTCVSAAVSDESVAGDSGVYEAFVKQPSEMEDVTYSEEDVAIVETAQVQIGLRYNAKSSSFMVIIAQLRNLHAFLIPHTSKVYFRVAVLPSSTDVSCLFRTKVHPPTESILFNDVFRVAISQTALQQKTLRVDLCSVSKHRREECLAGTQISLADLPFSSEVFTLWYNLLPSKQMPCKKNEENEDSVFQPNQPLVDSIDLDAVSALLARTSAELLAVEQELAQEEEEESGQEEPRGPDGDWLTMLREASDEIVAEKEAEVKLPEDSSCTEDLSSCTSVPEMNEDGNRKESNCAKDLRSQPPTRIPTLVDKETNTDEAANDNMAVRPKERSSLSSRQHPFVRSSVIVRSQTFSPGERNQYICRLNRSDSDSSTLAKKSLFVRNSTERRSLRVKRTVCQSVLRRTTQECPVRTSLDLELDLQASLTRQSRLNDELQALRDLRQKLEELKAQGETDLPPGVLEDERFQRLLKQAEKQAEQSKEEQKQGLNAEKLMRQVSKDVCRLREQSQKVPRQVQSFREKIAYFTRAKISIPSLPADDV

Substance	solubility in G1/S (log2) (HeLa Kyoto [1])	thermal stability score (HeLa Kyoto [2]; [5])	thermal stability score (HeLa Kyoto [2]; cell cycle stage: mitosis)	solubility change mitosis (log2) (HeLa Kyoto [3])	melting temperature (HeLa Kyoto [4]; cell cycle stage: G1/S) [°C]	melting temperature (HeLa Kyoto [4]; cell cycle stage: mitosis) [°C]
ASPM	-0.625	0.917	-0.0273	0.177		
CDK17	-0.187	0.0888	-0.0845	0.0778		
DYNC2H1	-0.273	0.756	0.972	0.0553		
MAAAAGDGGGEGGAGLGSAAGLGPGPGLRGQGPSAEAHEGAPDPMPAALHPEEVAARLQRMQRELSNRRKILVKNLPQDSNCQEVHDLLKDYDLKYCYVDRNKRTAFVTLLNGEQAQNAIQMFHQYSFRGKDLIVQLQPTDALLCITNVPISFTSEEFEELVRAYGNIERCFLVYSEVTGHSKGYGFVEYMKKDFAAKARLELLGRQLGASALFAQWMDVNLLASELIHSKCLCIDKLPSDYRDSEELLQIFSSVHKPVFCQLAQDEGSYVGGFAVVEYSTAEQAEEVQQAADGMTIKGSKVQVSFCAPGAPGRSTLAALIAAQRVMHSNQKGLLPEPNPVQIMKSLNNPAMLQVLLQPQLCGRAVKPAVLGTPHSLPHLMNPSISPAFLHLNKAHQSSVMGNTSNLFLQNLSHIPLAQQQLMKFENIHTNNKPGLLGEPPAVVLQTALGIGSVLPLKKELGHHHGEAHKTSSLIPTQTTITAGMGMLPFFPNQHIAGQAGPGHSNTQEKQPATVGMAEGNFSGSQPYLQSFPNLAAGSLLVGHHKQQQSQPKGTEISSGAASKNQTSLLGEPPKEIRLSKNPYLNLASVLPSVCLSSPASKTTLHKTGIASSILDAISQGSESQHALEKCIAYSPPFGDYAQVSSLRNEKRGSSYLISAPEGGSVECVDQHSQGTGAYYMETYLKKKRVY [RAVER2]	0.172	1.56	1.81	-0.203		
MAAVLESLLREEVSVAAVVRWIARSTQGSEDNAGEAAALSSLRALRKEFVPFLLNFLREQSSRVLPQGPPTPAKTPGASAALPGRPGGPPRGSRGARSQLFPPTEAQSTAAEAPLARRGGRRRGPGPARERGGRGLEEGVSGESLPGAGGRRLRGSGSPSRPSLTLSDPPNLSNLEEFPPVGSVPPGPTGTKPSRRINPTPVSEERSLSKPKTCFTSPPISCVPSSQPSALDTSPWGLGLPPGCRSLQEEREMLRKERSKQLQQSPTPTCPTPELGSPLPSRTGSLTDEPADPARVSSRQRLELVALVYSSCIAENLVPNLFLELFFVFQLLTARRMVTAKDSDPELSPAVLDSLESPLFQSIHDCVFFAVQVLECHFQVLSNLDKGTLKLLAENERLLCFSPALQGRLRAAYEGSVAKVSLVMPPSTQAVSFQPETDNRANFSSDRAFHTFKKQRDVFYEVLREWEDHHEEPGWDFEKGLGSRIRAMMGQLSAACSHSHFVRLFQKQLLQMCQSPGGAGGTVLGEAPDVLSMLGADKLGRLWRLQERLMAPQSSGGPCPPPTFPGCQGFFRDFILSASSFQFNQHLMDSLSLKIQELNGLALPQHEPNDEDGESDVDWQGERKQFAVVLLSLRLLAKFLGFVAFLPYRGPEPPPTGELQDSILALRSQVPPVLDVRTLLQRGLQARRAVLTVPWLVEFLSFADHVVPLLEYYRDIFTLLLRLHRSLVLSQESEGKMCFLNKLLLLAVLGWLFQIPTVPEDLFFLEEGPSYAFEVDTVAPEHGLDNAPVVDQQLLYTCCPYIGELRKLLASWVSGSSGRSGGFMRKITPTTTTSLGAQPSQTSQGLQAQLAQAFFHNQPPSLRRTVEFVAERIGSNCVKHIKATLVADLVRQAESLLQEQLVTQGEEGGDPAQLLEILCSQLCPHGAQALALGREFCQRKSPGAVRALLPEETPAAVLSSAENIAVGLATEKACAWLSANITALIRREVKAAVSRTLRAQGPEPAARGERRGCSRACEHHAPLPSHLISEIKDVLSLAVGPRDPDEGVSPEHLEQLLGQLGQTLRCRQFLCPPAEQHLAKCSVELASLLVADQIPILGPPAQYRLERGQARRLLHMLLSLWKEDFQGPVPLQLLLSPRNVGLLADTRPREWDLLLFLLRELVEKGLMGRMEIEACLGSLHQAQWPGDFAEELATLSNLFLAEPHLPEPQLRACELVQPNRGTVLAQS [CDAN1]	0.0358	0.128	-0.765	0.117		
MAGFAELGLSSWLVEQCRQLGLKQPTPVQLGCIPAILEGRDCLGCAKTGSGKTAAFVLPILQKLSEDPYGIFCLVLTPTRELAYQIAEQFRVLGKPLGLKDCIIVGGMDMVAQALELSRKPHVVIATPGRLADHLRSSNTFSIKKIRFLVMDEADRLLEQGCTDFTVDLEAILAAVPARRQTLLFSATLTDTLRELQGLATNQPFFWEAQAPVSTVEQLDQRYLLVPEKVKDAYLVHLIQRFQDEHEDWSIIIFTNTCKTCQILCMMLRKFSFPTVALHSMMKQKERFAALAKFKSSIYRILIATDVASRGLDIPTVQVVINHNTPGLPKIYIHRVGRTARAGRQGQAITLVTQYDIHLVHAIEEQIKKKLEEFSVEEAEVLQILTQVNVVRRECEIKLEAAHFDEKKEINKRKQLILEGKDPDLEAKRKAELAKIKQKNRRFKEKVEETLKRQKAGRAGHKGRPPRTPSGSHSGPVPSQGLV [DDX49]	-0.148	2.1	1.97	-0.0629		
MTTTTTFKGVDPNSRNSSRVLRPPGGGSNFSLGFDEPTEQPVRKNKMASNIFGTPEENQASWAKSAGAKSSGGREDLESSGLQRRNSSEASSGDFLDLKGEGDIHENVDTDLPGSLGQSEEKPVPAAPVPSPVAPAPVPSRRNPPGGKSSLVLG [HN1]	-0.248			0.268	52.1	
MVGPAPRRRLRPLAALALVLALAPGLPTARAGQTPRPAERGPPVRLFTEEELARYGGEEEDQPIYLAVKGVVFDVTSGKEFYGRGAPYNALTGKDSTRGVAKMSLDPADLTHDTTGLTAKELEALDEVFTKVYKAKYPIVGYTARRILNEDGSPNLDFKPEDQPHFDIKDEF [NENF]	0.423			-0.0192	55.3	52.4
MYLSICCCFLLWAPALTLKNLNYSVPEEQGAGTVIGNIGRDARLQPGLPPAERGGGGRSKSGSYRVLENSAPHLLDVDADSGLLYTKQRIDRESLCRHNAKCQLSLEVFANDKEICMIKVEIQDINDNAPSFSSDQIEMDISENAAPGTRFPLTSAHDPDAGENGLRTYLLTRDDHGLFGLDVKSRGDGTKFPELVIQKALDREQQNHHTLVLTALDGGEPPRSATVQINVKVIDSNDNSPVFEAPSYLVELPENAPLGTVVIDLNATDADEGPNGEVLYSFSSYVPDRVRELFSIDPKTGLIRVKGNLDYEENGMLEIDVQARDLGPNPIPAHCKVTVKLIDRNDNAPSIGFVSVRQGALSEAAPPGTVIALVRVTDRDSGKNGQLQCRVLGGGGTGGGGGLGGPGGSVPFKLEENYDNFYTVVTDRPLDRETQDEYNVTIVARDGGSPPLNSTKSFAIKILDENDNPPRFTKGLYVLQVHENNIPGEYLGSVLAQDPDLGQNGTVSYSILPSHIGDVSIYTYVSVNPTNGAIYALRSFNFEQTKAFEFKVLAKDSGAPAHLESNATVRVTVLDVNDNAPVIVLPTLQNDTAELQVPRNAGLGYLVSTVRALDSDFGESGRLTYEIVDGNDDHLFEIDPSSGEIRTLHPFWEDVTPVVELVVKVTDHGKPTLSAVAKLIIRSVSGSLPEGVPRVNGEQHHWDMSLPLIVTLSTISIILLAAMITIAVKCKRENKEIRTYNCRIAEYSHPQLGGGKGKKKKINKNDIMLVQSEVEERNAMNVMNVVSSPSLATSPMYFDYQTRLPLSSPRSEVMYLKPASNNLTVPQGHAGCHTSFTGQGTNASETPATRMSIIQTDNFPAEPNYMGSRQQFVQSSSTFKDPERASLRDSGHGDSDQADSDQDTNKGSCCDMSVREALKMKTTSTKSQPLEQEPEECVNCTDECRVLGHSDRCWMPQFPAANQAENADYRTNLFVPTVEANVETETYETVNPTGKKTFCTFGKDKREHTILIANVKPYLKAKRALSPLLQEVPSASSSPTKACIEPCTSTKGSLDGCEAKPGALAEASSQYLPTDSQYLSPSKQPRDPPFMASDQMARVFADVHSRASRDSSEMGAVLEQLDHPNRDLGRESVDAEEVVREIDKLLQDCRGNDPVAVRK [PCDH17]	0.25			-0.0215	53.8	53.4
PHLPP1	0.00518			-0.0508	51.7	51.2
PIEZO2	-0.112			-0.0931	55.7	54.8
PLSCR3	0.116			-0.119		56.6
PYM1	0.42			0.791	57.1	53.9
QSER1	-0.136			-0.127	46.5	48.5
RAP1GAP	0.239			-0.474	49.2	
RERE	-0.116			0.148		50.7
RINT1	-0.0714			-0.105	51.4	49.2
SYNE2	-0.84			0.607	51.1	50.3
TNRC6A	-0.225			-0.0232	50.7	
UBE2D3	0.585			0.0226	49.5	
WWC2	-0.102			-0.0226	51.1	49.9
